The source of these data is the nanobody polyreactivity screen of Harvey et al. (2022).

The series can be described thus: yeast display, Sf9 membrane polyspecificity reagent, FACS + sequencing; frameworks hold sequencing errors. The procedure, abridged: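 Nanobodies from a synthetic yeast display library (Saccharomyces cerevisiae BJ5465), induced 36–48 hours with galactose, were stained 1 hour at 4 °C with 10% biotinylated, detergent-solubilized Sf9 membrane reagent, enriched on streptavidin microbeads, then FACS-sorted. Anti-HA (expression) and streptavidin (reagent binding) fluorescence set low and high (top ~1%) gates. Polyreactivity labels come from the gate of origin. Genes were colony-PCR amplified, MiSeq 2 × 250 sequenced and filtered by CDR length.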
As for “QFQLVESGGGLVQARGSLRLSCAASGITFPVYAMGWYRQAPGKEREFVASIRFSTGRTYYADSVKGRFTISRDNAKNTVYLQINSLKPEDTAVYYCRGSTQSPYNSWGQGTQVTVSS”, the “polyreactivity (PSR sort gate)” value is recorded as “high polyreactivity”.
Then “QFQLVESGGGLVQPGGSLRLSCAASGGIFKRYAIGWYRQAPGKERELVAGISRRSGRTYYADSVKGRFTISRDNAKNTVYLQMNSLKPEDTAVFYCAARGIGGYDYWGHGTQVTVSS”, with “high polyreactivity”; and “QFQLVESGGGLVQSGGSLRLSCAPTGLIFRPYAMGCYRQAPGKERELVAGINSGGNTDYADSVKGRFTISRDNAKNTVYLQMNSLKPEDTAVYYCNREYQVTIYDYCGQGTQVTVSS”, with “low polyreactivity”.
In the case of “QFQLVESVGGLVQAGGSLRLSCAASGFTFPSYAMGWYRQAPGKERELVAAISYRGGRTYYADSVKWRFTISRDNAKNTVYLQMNSLKPEDTAVYYCNALFATVPPWGFDYWGQGTQVTVSS”, the “polyreactivity (PSR sort gate)” value is recorded as “high polyreactivity”.
In the case of “QFQLVESVGGLVQAGGSLRLSCAASGLNFSNYAMGWYRQAPGKERELVAVSSSRVSRTYYADSVKGRFTISRDNAKNTVYLQMISLKPEDTAVYYCAARDRTEFYYWGQGTQVTVSS”, the “polyreactivity (PSR sort gate)” value is given as “high polyreactivity”.
Then “QFQLVESWGGLVPPGGILRLSCAASRSTFRYYPIGRYRQAPGHERELVAVISSSGSRTNYADSVKGRFTISRDTAKNTVYLQLNSLKPEDSAVYYCGAVSSYRYYADYYWGQGTQVTVSS”, with “high polyreactivity”; and “QFQLVETVGGLVQAGGSLRLSCAASGSIFPGYAMGWYRQAPGKERELVATITWSGGSTYYADSVKGRFTISRDNAKNTVYLQMYSLIPEDTAVYYFNADSNWYYQWNYYGLYDYWGKGTQVTVSS”, with “low polyreactivity”.
On to “QFQRVESGGGLVQAGGSLRLSCAASGRILSYKVMGWYRQAPGKEREFVASIRRTGVRTYYADSVKGRFTISRDNAKNTVYLQINSLKPEDTGVYYCNAANFHFWDYYYWGQGTQVTVSS”, for which the “polyreactivity (PSR sort gate)” value is “low polyreactivity”.
Take “QGHLRESGGGLVQAGGSLRLTCAASGSNLWQYAMGWYRQATGKERELVAAITYSGGSTHYADSVKGRFTISRDNAKNTVYLQLNSLKPEDTAVYYCAAGSWYRYAALRYDHWGQGTQVTVST”: the “polyreactivity (PSR sort gate)” value is recorded as “low polyreactivity”.
The result for “QGHLVESGGGLVQAGGSLRLSCAASGITLTRYAMGWYRQAPWKERELVAAISTGGGSTYYADSVKGRFTFSRDNAKNTVYLQMNSLKPEDTAVYYCAARIRFARGYPITRTYDYWGQGTQVTVSS” reads “high polyreactivity”; that for “QGHLVESGGRLVQAGGSLRLSCAASGRIFPTYTMGWYRQAPWKERELVAAIRRGGGRTYYADSVKGRFTISRDNAKKTVYLQMNSLKPEDTAVYYCAAPFYRQSLIEYDYWGQGTQVTVSS”, “high polyreactivity”.
In the case of “QGQHVESGGGLVQAGGRLRLSCAASGSTFGDNAMGWSRQAPGKERELVAAISSGSGGSTYYADSVKGRFTISRDNAKNTVYLQMNSLKPEDTAVYYCADVGPYGYYYGHYGYWGQGTQVTVSS”, the “polyreactivity (PSR sort gate)” value is on record as “low polyreactivity”.
Turning to “QGQHVESGGGLVQAGGSLRLICAASGRIIVHYVMGWYRQAPRKERELVAAISRSGGRTYYADSVKGRFTISRDNAKNTVYLQMNSLKPEDTAVYYCATDASTDKYDYWGQGTQVTVSS”, the “polyreactivity (PSR sort gate)” value is on record as “high polyreactivity”.
With “QGQHVETGGGLVQAGGRLRLSCAASGSTLRDYVMGWSRQAPGKERELVAAITSRVDDTYYADSVKGRFTISRDNAKNTVYLQMNSLKPEDTAVYYCAADSSVTLRIGGYYWFYAFDYWGQGTQVTVSS”, the “polyreactivity (PSR sort gate)” value was “low polyreactivity”.
Then “QGQLEESGGGLVQAGGSLRLSCAASGITFNDYTMGWYRQAPGKEMELVAVITKTGSRTYYADSVKGRFTISRDNAKNTVYLQMNSLKPEDTAVYYCNALYYIHYYQGYGYWGQGTQVTVSS”, with “high polyreactivity”; and “QGQLEESGGGLVQAGGSLRLSCAASGNTFRSYAMGSYRQAPGKERELVAAISGRGGSTYYADSVKGRFTISRDNAKYTVFVQLNSLKPDDTAVYYCAAESRRVNYANDDWGQGTQVTVSS”, with “high polyreactivity”; and “QGQLGESGGGLVQAGGSLRLSCAASGGTFYYYAMGWYRHAPGKEREFVAAITWTGGRTYYADSVKGRFTISRDNAKNTVYLQMNSLKPEDSAVYYCAASDRYGGRDYWGQGTQVTVSS”, with “high polyreactivity”.
Then “QGQLLESAGGLLQAGGSLRLSSAASGFNFQQYVMGWYRQARGNERELVASISRRGSRTYYADSVKGGFTISRDNAKNTVYLQMNSLKPEDTAVYYCAAPPSTSEGPYGYWGQGTQVSVSS”, with “high polyreactivity”.
The result for “QGQLQESGGGLVKAGGSLRLSCPASGNISNHKDMGWYRQAPGKESEFVAGITAGGITNYADSVTGRFTICRDNAKNTVDLVMNSLKPEDTAVYYSAAYPDYAKSYGYWGQGTQATVSS” reads “low polyreactivity”; that for “QGQLVESAGGLVQAGGSLRLSCGASGRSFYSYTMGWYRQAPVKERELVAAITRADRTHYADSVKGRFTISRDYATKHVDCERNSQKPEDTAVYYAATRQVYSVRYYYRGQGTQVTVSS”, “high polyreactivity”.
For the sequence “QGQLVESGGGLGQAGGSLRLSCGASGRTFDSYAMGWYRPAPGKEREFVAAISYSGTSTYYAVSVTGRFTISRDKAKNTVYLQMNSLIPEDTAVYYCAKEYTFRQWGQGTQVTVSS”, the “polyreactivity (PSR sort gate)” value was “low polyreactivity”.
Consider “QGQLVESGGGLVQAGCSLRLSCAASGITYTPYALGWYRQAPGKAREFVASISVSGGSTYYADSVKGRFRFSRVNAKNTVYLEMNCLKPEDTAVYYCNAVSYRKHYFNSLYGYWGLGTQVTVSS”, for which the “polyreactivity (PSR sort gate)” value is reported as “high polyreactivity”.
The result for “QGQLVESGGGLVQAGGCLRLSCAASGAIFCYAMGWYRQAPGKERDLVAAISFSGVSTYYADSVKGRFTISRENAKNSVYLQMISLIPEDTAVYYCNAYSDGDEDYWGQGTKVTVSS” reads “low polyreactivity”; that for “QGQLVESGGGLVQAGGILRLSCAASGIIFCRYAMGWYRQAPGKERELVATITWRGGSTYYADSVKARFTNSRDNAKNTVYLQMNSLKPEDTAVYSSAADTRPSRSFRARDYWGQGTQVTVSS”, “low polyreactivity”.
For “QGQLVESGGGLVQAGGKLRLSCAASGSIFVRYAIGWYRQAPGKERELVAAISTRGDTTYYADSVKGRFTNSRDNAKNTVYLQLNSLKPEDTAVFYCAAVASQYPGPRNYDYWGQGTQVTVSS”, the “polyreactivity (PSR sort gate)” value is recorded as “low polyreactivity”.
Then “QGQLVESGGGLVQAGGRLRLSCAASGSIFASYAMGWYRQAPGKERELVAAITSDGNTYYADSVKGRFTISRDNAKNTVYLQMNSLKPEDTAVYYCAADRYSTYPYAKGTEFYYWGQGTQVTVSS”, with “low polyreactivity”; and “QGQLVESGGGLVQAGGRLRLSCAASGSTFYGNAMGWYRQAPGKERELVAAITWGDASTYYADSVKGRFTISRDNAKNPVYLQMNSLKPEDTAVSYCAVDESYGSSSDMDYWGQGTQVTVSS”, with “low polyreactivity”; and “QGQLVESGGGLVQAGGSIRLSCAAYGSTFNVNAMGLYRQAPGKERELVAAISRSCVSTYYADSVKWRFTISRDNAKNTVYLQMNSLKPEDTAVYYCNAYPGNWRGYRMDYWGQGNQVTVSS”, with “high polyreactivity”.
The result for “QGQLVESGGGLVQAGGSLRFSCAASGRTLSAHAMGWYREAPGTERELVATISTRGGRTYYADSVKGRFTISRDHAKNTVYIQMNSLKPEHTAVYSCAVTIRAKYTLKEDYWGQGTQVTVSS” reads “low polyreactivity”; that for “QGQLVESGGGLVQAGGSLRISSAASGGNFPGNTMGWYRLAPGKESELVAAISNGVSTNYADSVKGGFTISRDNAKNTVYLQMNSQKPEDTAVYYCAAEWSWWDGEDYHFEYDYWGQGTQVTVSS”, “low polyreactivity”.
In the case of “QGQLVESGGGLVQAGGSLRLSCAASGFIFFYYAMGWYRQAPRKERELVATISANGGNTYYADSVKGRFTISRDNAKNTVYLQMNSLKPEDTAVSYCARYTWYLRDWQWYYWGDEDYWGQGTQVTVSS”, the “polyreactivity (PSR sort gate)” value is recorded as “high polyreactivity”.
Turning to “QGQLVESGGGLVQAGGSLRLSCAASGFIFRYYTMGWYRQAPGKERELVAAITSRGGSTYYADSVKGRFTISRDNAKNTFYLQMNSLKPEDTAVYYCATTRWGYEYWGQGTQVTVSS”, the “polyreactivity (PSR sort gate)” value is listed as “high polyreactivity”.
The result for “QGQLVESGGGLVQAGGSLRLSCAASGFIFSKYAMGWYRQAPGKERELVAAISYRTVRTYYADSVKGRFTISRDNAKNTVDLQMNSLKPEDTAVYYCAADSRYWLYDYWGQGTQVTVSS” reads “high polyreactivity”.
In the case of “QGQLVESGGGLVQAGGSLRLSCAASGFNFRRYAMGWYRHAPGKERELVAVITSGGSTYYADSVKGRFTISRDYAKNTVYLQMNSLKPEDTAVYYCASRYYWYSQEYVLSSWWGDYWGLGTQVTVSS”, the “polyreactivity (PSR sort gate)” value is “high polyreactivity”.
Then “QGQLVESGGGLVQAGGSLRLSCAASGFTFRGYAMGWYRQAPGKERELVATITSGGDTNDADSVKGRFTISRDNAKKTVYLQMNSLKPEDTAVYYCAAHDWEFVEEAGPVPWTPYDYWGQGTQVTVSS”, with “low polyreactivity”; and “QGQLVESGGGLVQAGGSLRLSCAASGFTFVYNAMGWYRQAPGKERELVAAITSGGNTYYADSVKGRFTISRDNAKNTVYLQMNSLKPEDTAVYYCAALSYYRFSQEDDYWGQGTQVTVSS”, with “high polyreactivity”.
Then “QGQLVESGGGLVQAGGSLRLSCAASGGIFDSNAMGWYRQARGKERELVAAISDSGGSTYYADSVKGRFTITRDNAKNTVYLQMNSLKTDDTAVYDCAADSDYHFLNYRFGMDYWGQGTQVTVSS”, with “low polyreactivity”; and “QGQLVESGGGLVQAGGSLRLSCAASGGIFTDYAMGWYRQAPGKERELVAAITRRGGRTYYADSVKGRFTISRDNAKNPVYLQMNSLKPEDTAVYYCAATRSGEYDYWGQGTQVTVSS”, with “high polyreactivity”.
As to “QGQLVESGGGLVQAGGSLRLSCAASGIILSAYALGWYRQAPGNERELVAAITRRGGRTYYADSVKGRFTISRDNAKNTVYLQMNSLKPEDTAVYYCATVQSGRVRTYDYWGQGTQVTVSS”, the “polyreactivity (PSR sort gate)” value is reported as “high polyreactivity”.
The result for “QGQLVESGGGLVQAGGSLRLSCAASGISLKYAMGWYRQAPGKERELVASISSRGTSTYYADSVKGRFTISRDNAMNTVYLQMNSLKPEDTAVYYCNTVPPYWWGYWYKGDHWGQGTQGTVSS” reads “high polyreactivity”; that for “QGQLVESGGGLVQAGGSLRLSCAASGRIFVANAMGWYRQAPGKERELVAAISGRGSRTYYADSVKGRFTISRDNAKKTVYIQMNSLKPEETAVYSCAARYRYDGRYDYWGPGTQVTVSS”, “high polyreactivity”.
